Results from patent US5736363A, “IGF-II analogues” (British Bio-technology Limited, priority 1991, dated 1998).

Assays:
type 1 IGF receptor = molecular target: T1, type 1 IGF receptor (Mus musculus, UniProt Q60751); assay: Type 1 IGF receptor binding assay on Swiss mouse 3T3 cells; settings: for IC50, inhibits binding of 125I-IGF-II (type 1 IGF receptor): mutant value holds for material from either secretion or refolding route
T1 construct: endogenous in cells; host or cells: Swiss mouse 3T3 cells
Procedure: Swiss 3T3 cells at 5×10^4 cells/ml were seeded into 24 well plates at 5×10^3 cells/well in DMEM containing 10% FCS and incubated at 37°. The cells were used for assay after 5-6 days. For the binding assay, the growth medium was flicked out of the plate, and the cells washed twice with binding medium (serum free DMEM containing 25 mM HEPES, 1 mg/ml BSA and 2 mM glutamine). A further 400 μl of binding medium was added to each well along with 50 μl of sample or IGF-II standard (Bachem). Twofold dilutions of IGF-II were used for the standard curve to give final concentrations in the well from 300-1.56 ng/ml. […] The plate was incubated at room temperature for 2 hr., the assay medium removed and the cells washed four limes in PBS containing 1 mg/ml BSA and 0.1 μM KI. The plates were blotted dry and the cells solubilised for by the addition of 750 μl 0.5M NaOH containing 0.2% w/v Triton X100. After 15 min the lysed samples were transferred to tubes and the residual counts determined using a gamma counter.

type 2 IGF receptor = molecular target: T2, type 2 IGF receptor (Rattus norvegicus, UniProt G3V824); assay: Type 2 IGF receptor binding assay on H35 (rat hepatoma) cells
T2 construct: endogenous in cells; host or cells: H35 (rat hepatoma) cells
Procedure: Binding to the type 2 IGF receptor was assessed on H35 (rat hepatoma) cells, see FIG. 11. Cells at 5×10^5 cells/ml were seeded into 24 well plates at 5×10^4 cells/well in DMEM containing 0.5% FCS and incubated at 37°. The cells were used for assay after 2-3 days. For the binding assay, the growth medium was flicked out of the plate, and the cells washed once with binding medium (serum free DMEM containing 25 mM HEPES, 1 mg/ml BSA and 2 mM glutamine).
A further 400 μl of binding medium was added to each well along with 50 μl of sample or IGF-II standard (Bachem). Twofold dilutions of IGF-II were used for the standard curve to give final concentrations in the well from 300-1.56 ng/ml. Labelled IGF-II was then added (50 μl of […]) to give a final concentration of 2 ng/ml and a total of about 40,000 dpm per well. The plate was incubated at room temperature for 3 hr., the assay medium removed and the cells washed four times in Hanks buffered salt solution containing 1 mg/ml BSA. The plates were blotted dry and the cells solubilised for by the addition of 750 μl 10 mM Tris HCl, 5 mM EDTA, 0.2% w/v SDS. After 15 min the lysed samples were transferred to tubes and the residual counts determined using a gamma counter.

insulin receptor = molecular target: T3, insulin receptor (Rattus norvegicus, UniProt P15127); assay: Insulin receptor binding assay on H35 cells
T3 construct: endogenous in cells; host or cells: H35 (rat hepatoma) cells

[1] = refolded material (HRP fusion route)

T3 sequence (P15127 27-759 limits assumed): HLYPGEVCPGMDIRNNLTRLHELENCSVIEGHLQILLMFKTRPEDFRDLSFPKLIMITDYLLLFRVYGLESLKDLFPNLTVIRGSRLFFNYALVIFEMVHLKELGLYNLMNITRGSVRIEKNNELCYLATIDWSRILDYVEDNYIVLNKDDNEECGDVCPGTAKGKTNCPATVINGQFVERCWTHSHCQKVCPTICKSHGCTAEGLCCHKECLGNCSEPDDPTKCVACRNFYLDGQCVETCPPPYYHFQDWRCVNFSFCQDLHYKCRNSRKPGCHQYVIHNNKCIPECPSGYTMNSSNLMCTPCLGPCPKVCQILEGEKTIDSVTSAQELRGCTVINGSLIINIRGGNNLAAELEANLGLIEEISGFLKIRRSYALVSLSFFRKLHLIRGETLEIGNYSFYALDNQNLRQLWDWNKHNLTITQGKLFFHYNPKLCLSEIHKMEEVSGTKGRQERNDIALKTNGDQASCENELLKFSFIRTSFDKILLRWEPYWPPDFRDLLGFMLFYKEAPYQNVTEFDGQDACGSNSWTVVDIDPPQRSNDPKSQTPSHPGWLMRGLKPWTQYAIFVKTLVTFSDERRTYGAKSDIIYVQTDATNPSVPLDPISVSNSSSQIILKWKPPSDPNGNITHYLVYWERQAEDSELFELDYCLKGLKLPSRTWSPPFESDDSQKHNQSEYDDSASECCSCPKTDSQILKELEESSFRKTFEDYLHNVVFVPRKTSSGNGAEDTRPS
T3 sequence (P15127 764-1383 partner limits assumed): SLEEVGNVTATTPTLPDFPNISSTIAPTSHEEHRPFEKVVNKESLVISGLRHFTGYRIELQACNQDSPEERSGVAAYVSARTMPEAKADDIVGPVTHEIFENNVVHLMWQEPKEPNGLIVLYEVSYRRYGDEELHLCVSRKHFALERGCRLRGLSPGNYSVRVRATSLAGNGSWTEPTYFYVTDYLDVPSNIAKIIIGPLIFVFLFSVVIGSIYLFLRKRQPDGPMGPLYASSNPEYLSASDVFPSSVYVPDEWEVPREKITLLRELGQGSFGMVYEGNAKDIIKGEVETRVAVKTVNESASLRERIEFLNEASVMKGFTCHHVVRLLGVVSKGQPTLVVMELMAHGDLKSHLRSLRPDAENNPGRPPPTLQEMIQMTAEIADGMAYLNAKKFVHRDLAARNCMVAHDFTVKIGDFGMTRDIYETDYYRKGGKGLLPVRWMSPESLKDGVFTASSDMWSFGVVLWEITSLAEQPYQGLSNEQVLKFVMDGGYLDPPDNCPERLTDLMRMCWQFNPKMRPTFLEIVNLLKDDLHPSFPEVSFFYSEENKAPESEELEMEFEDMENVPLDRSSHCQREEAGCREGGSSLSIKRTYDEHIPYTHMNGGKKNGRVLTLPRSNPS
T1 sequence (Q60751 31-737 limits assumed): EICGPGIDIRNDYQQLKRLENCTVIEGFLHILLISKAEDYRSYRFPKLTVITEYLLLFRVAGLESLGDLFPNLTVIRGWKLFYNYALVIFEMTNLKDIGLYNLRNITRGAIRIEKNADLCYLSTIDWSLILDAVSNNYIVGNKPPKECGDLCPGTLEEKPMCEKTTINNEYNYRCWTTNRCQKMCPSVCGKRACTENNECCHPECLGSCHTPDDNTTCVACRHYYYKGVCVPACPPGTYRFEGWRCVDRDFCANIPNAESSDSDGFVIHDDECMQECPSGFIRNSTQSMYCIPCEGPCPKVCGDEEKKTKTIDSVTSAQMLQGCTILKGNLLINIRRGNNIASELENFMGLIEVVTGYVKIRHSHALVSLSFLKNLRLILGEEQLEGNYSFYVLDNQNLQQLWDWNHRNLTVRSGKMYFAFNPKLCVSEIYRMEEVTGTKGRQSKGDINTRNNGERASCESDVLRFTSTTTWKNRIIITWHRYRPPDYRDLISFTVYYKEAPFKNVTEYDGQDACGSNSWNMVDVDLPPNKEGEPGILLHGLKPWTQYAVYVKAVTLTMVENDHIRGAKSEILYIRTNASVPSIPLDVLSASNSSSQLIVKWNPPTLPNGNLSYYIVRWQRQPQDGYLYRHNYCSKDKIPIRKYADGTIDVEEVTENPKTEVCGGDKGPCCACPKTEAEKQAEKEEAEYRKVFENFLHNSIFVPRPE
T1 sequence (Q60751 742-1373 partner limits assumed): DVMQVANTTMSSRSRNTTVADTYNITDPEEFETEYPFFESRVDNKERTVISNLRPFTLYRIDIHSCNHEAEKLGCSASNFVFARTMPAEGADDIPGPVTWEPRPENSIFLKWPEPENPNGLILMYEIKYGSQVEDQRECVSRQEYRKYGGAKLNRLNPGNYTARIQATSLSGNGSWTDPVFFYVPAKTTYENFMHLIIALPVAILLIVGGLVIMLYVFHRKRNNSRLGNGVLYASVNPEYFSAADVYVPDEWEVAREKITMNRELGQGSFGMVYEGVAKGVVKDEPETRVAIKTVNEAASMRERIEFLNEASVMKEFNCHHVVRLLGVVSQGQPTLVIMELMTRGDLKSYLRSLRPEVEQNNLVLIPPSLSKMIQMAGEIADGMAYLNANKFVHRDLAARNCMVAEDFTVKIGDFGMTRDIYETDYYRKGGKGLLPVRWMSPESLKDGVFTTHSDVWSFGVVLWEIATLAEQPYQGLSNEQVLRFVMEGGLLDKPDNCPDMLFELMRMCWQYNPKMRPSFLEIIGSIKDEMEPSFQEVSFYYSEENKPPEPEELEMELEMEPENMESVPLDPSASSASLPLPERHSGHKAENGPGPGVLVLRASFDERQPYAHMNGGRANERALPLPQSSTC

Row | IC50, inhibits binding of 125I-IGF-II (type 1 IGF receptor) (type 1 IGF receptor) | IC50, inhibits binding of 125I-IGF-II (type 2 IGF receptor) (type 2 IGF receptor; [1]) | IC50, inhibits binding of 125I-insulin (insulin receptor) (insulin receptor; [1]) | IC50, inhibits binding of 125I-IGF-II (type 2 IGF receptor) (type 2 IGF receptor; commercial reference standard (Bachem)) | affinity for the type 1 IGF receptor versus native IGF-II (type 1 IGF receptor) | affinity for the type 2 IGF receptor versus native IGF-II (type 2 IGF receptor) | IC50, inhibits binding of 125I-IGF-II (type 2 IGF receptor) (type 2 IGF receptor; secreted material) | IC50, inhibits binding of 125I-insulin (insulin receptor) (insulin receptor; secreted material) | Substance
1 | 0.1 µg/mL | 0.03 µg/mL | 0.16 µg/mL |  |  |  |  |  | wild-type refolded material: wild-type IGF-II made by the HRP fusion route and refolded [reference compound]
2 | 0.06 µg/mL |  |  | 0.018 µg/mL |  |  |  |  | wild-type standard (Bachem): recombinant IGF-II from a commercial supplier (Bachem) used as a reference standard [reference compound]
3 | 0.21 µg/mL | 0.06 µg/mL | 1.3 µg/mL |  | comparable to native IGF-II | comparable to native IGF-II | 0.03 µg/mL | 1.6 µg/mL | IGF-II (Q^37 Q^38): IGF-II with the modifications Arg37Gln and Arg38Gln
